This passage reports percent of radiolabeled input bound results from article PMC6389893.

Holding throughout (assay): pull-down; GST fusion proteins (2 µg) on agarose beads, nuclease-treated, with in vitro translated [35S]-TRIM33; NETN buffer (20 mM Tris HCl pH 7.5, 100 mM NaCl, 1 mM EDTA, 0.5% NP-40, 1 mM DTT) with 200 µg/ml ethidium bromide, 1 h at 4 °C; phosphoimaging, bound as percent of input
The target of test [1] is GST-IN C-terminal domain (HIV-1).
Test [2] concerns the target GST-IN catalytic core domain (HIV-1).
In test [3] the target is GST-IN full length (HIV-1).
Test [4] has as its target GST-IN N-terminal domain (HIV-1).

Bounds are passed on as bounds.

B1: in vitro translated [35S]-TRIM33 (natural protein)
chain: MAENKGGGEAESGGGGSGSAPVTAGAAGPAAQEAEPPLTAVLVEEEEEEGGRAGAEGGAAGPDDGGVAAASSGSAQAASSPAASVGTGVAGGAVSTPAPAPASAPAPGPSAGPPPGPPASLLDTCAVCQQSLQSRREAEPKLLPCLHSFCLRCLPEPERQLSVPIPGGSNGDIQQVGVIRCPVCRQECRQIDLVDNYFVKDTSEAPSSSDEKSEQVCTSCEDNASAVGFCVECGEWLCKTCIEAHQRVKFTKDHLIRKKEDVSESVGASGQRPVFCPVHKQEQLKLFCETCDRLTCRDCQLLEHKEHRYQFLEEAFQNQKGAIENLLAKLLEKKNYVHFAATQVQNRIKEVNETNKRVEQEIKVAIFTLINEINKKGKSLLQQLENVTKERQMKLLQQQNDITGLSRQVKHVMNFTNWAIASGSSTALLYSKRLITFQLRHILKARCDPVPAANGAIRFHCDPTFWAKNVVNLGNLVIESKPAPGYTPNVVVGQVPPGTNHISKTPGQINLAQLRLQHMQQQVYAQKHQQLQQMRMQQPPAPVPTTTTTTQQHPRQAAPQMLQQQPPRLISVQTMQRGNMNCGAFQAHQMRLAQNAARIPGIPRHSGPQYSMMQPHLQRQHSNPGHAGPFPVVSVHNTTINPTSPTTATMANANRGPTSPSVTAIELIPSVTNPENLPSLPDIPPIQLEDAGSSSLDNLLSRYISGSHLPPQPTSTMNPSPGPSALSPGSSGLSNSHTPVRPPSTSSTGSRGSCGSSGRTAEKTSLSFKSDQVKVKQEPGTEDEICSFSGGVKQEKTEDGRRSACMLSSPESSLTPPLSTNLHLESELDALASLENHVKIEPADMNESCKQSGLSSLVNGKSPIRSLMHRSARIGGDGNNKDDDPNEDWCAVCQNGGDLLCCEKCPKVFHLTCHVPTLLSFPSGDWICTFCRDIGKPEVEYDCDNLQHSKKGKTAQGLSPVDQRKCERLLLYLYCHELSIEFQEPVPASIPNYYKIIKKPMDLSTVKKKLQKKHSQHYQIPDDFVADVRLIFKNCERFNEMMKVVQVYADTQEINLKADSEVAQAGKAVALYFEDKLTEIYSDRTFAPLPEFEQEEDDGEVTEDSDEDFIQPRRKRLKSDERPVHIK
modifications: [35S]-labeled
Regarding B1, the percent of radiolabeled input bound in test [1] is more than 8.5%; in test [2] it was less than 3%; in test [3], more than 8.5%; in test [4] it was less than 3%.
